From patent US20200181261A1 (Bayer, published 2020) come the findings set out here.

Positions count from the first letter of the chain named.

First the molecules themselves.
T1: human CEACAM6, full-length, on cells (human, UniProt P40199 35-320)
T1 construct: used both for transfected HeLa cells and for tumor cell lines that express CEACAM6 endogenously; also called TPP-4639; HeLa human CEACAM6
T1 sequence: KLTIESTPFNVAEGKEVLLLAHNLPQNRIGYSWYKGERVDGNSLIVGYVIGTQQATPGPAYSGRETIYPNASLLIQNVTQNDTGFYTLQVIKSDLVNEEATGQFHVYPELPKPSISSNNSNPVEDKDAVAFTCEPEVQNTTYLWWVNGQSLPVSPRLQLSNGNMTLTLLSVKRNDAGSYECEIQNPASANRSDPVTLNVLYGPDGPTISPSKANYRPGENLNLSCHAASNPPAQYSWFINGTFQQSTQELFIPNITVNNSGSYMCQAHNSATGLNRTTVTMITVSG

T2: human CEACAM5, extracellular (mature form), R&D Systems 4128-CM (human, UniProt P06731 35-685)
T2 construct: used biotinylated in some assays; also called TPP-1438; hC5
T2 sequence: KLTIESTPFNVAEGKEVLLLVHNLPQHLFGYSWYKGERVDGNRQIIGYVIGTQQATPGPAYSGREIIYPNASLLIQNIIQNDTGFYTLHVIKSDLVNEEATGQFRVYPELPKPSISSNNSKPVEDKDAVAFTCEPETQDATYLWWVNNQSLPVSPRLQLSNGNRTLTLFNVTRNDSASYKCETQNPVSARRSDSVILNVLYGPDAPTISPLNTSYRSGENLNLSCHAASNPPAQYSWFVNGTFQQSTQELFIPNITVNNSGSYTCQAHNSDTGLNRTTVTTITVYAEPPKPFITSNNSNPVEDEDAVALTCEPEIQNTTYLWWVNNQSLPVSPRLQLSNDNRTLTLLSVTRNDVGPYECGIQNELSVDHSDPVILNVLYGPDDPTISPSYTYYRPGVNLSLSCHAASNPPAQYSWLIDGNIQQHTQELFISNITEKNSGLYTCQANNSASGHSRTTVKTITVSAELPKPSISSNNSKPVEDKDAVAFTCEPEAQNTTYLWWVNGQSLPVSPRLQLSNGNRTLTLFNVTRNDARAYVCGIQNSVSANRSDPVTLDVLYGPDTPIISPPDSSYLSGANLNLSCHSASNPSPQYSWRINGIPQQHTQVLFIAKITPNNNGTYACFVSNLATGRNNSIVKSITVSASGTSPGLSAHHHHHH

T3: human CEACAM3, extracellular (mature form), Sino Biological Inc. 11933-H08H (human, UniProt P40198 35-155)
T3 construct: used biotinylated in some assays; also called TPP-2755
T3 sequence: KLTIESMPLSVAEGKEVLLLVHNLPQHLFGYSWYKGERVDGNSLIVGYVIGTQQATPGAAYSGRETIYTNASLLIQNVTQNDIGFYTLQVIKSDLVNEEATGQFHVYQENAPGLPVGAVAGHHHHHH

T4: Macaca fascicularis CEACAM6, extracellular (mature form), obtained by Factor Xa cleavage of TPP-2443 (Macaca fascicularis)
T4 construct: used biotinylated in some assays; also called APP-319; Cynomolgus CEACAM6
T4 chain: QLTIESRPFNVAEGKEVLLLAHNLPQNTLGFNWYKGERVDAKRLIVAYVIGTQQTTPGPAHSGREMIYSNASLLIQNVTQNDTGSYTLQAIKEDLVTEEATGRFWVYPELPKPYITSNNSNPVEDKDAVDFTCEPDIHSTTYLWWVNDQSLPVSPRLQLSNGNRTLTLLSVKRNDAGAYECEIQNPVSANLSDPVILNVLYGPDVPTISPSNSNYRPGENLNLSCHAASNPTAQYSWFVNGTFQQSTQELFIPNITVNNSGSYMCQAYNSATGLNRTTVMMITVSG

B1: TPP-3707 (antibody, human IgG2, kappa, V domains shown)
VH: EVQLVESGGGLVQPGGSLRLSCAASGFTFSLYQMHWVRQAPGKGLEWVSWISFSGGNTGYADSVKGRFTISRDNSKNTLYLQMNSLRAEDTAVYYCARATGYSSPWYLDPWGQGTLVTVSS
VL: DIQMTQSPSSLSASVGDRVTITCQASHEIDNYLNWYQQKPGKAPKLLIYDAYWSKTGVPSRFSGSGSGTDFTLTISSLQPEDIATYYCQGYDDLSVTFGGGTKVDIKR
notes: also called 090E-M007-A09-Mat2-hIgG2-hIgG2Kappa
B2: TPP-3821 (antibody, human IgG2, kappa, V domains shown)
VH: QVTLRESGPALVKPTQTLTLTCTFSGFSLSTYGIGVGWIRQPPGKALEWLAHIWWNDNKYYSTSLKTRLTISKDTSKNQVVLTMTNMDPVDTATYYCARISLPYFDYWGQGTLVTVSS
VL: DIQLTQSPSFLSASVGDRVTITCKASQNVGTAVAWYQQKPGKAPKLLIYSASNRYTGVPSRFSGSGSGTEFTLTISSLQPEDFATYYCQQYNNYPLTFGGGTKVEIKR
notes: humanized from TPP-3187, human IgG2; also called 3187HU2-hIgG2Kappa
B3: TPP-3310 (antibody, human IgG2, kappa)
heavy: QVTLRESGPALVKPTQTLTLTCTFSGFSLSTYGIGVGWIRQPPGKALEWLAHIWWNDNKYYSTSLKTRLTISKDTSKNQVVLTMTNMDPVDTATYYCARISLPYFDYWGQGTTLTVSSASTKGPSVFPLAPCSRSTSESTAALGCLVKDYFPEPVTVSWNSGALTSGVHTFPAVLQSSGLYSLSSVVTVPSSNFGTQTYTCNVDHKPSNTKVDKTVERKCCVECPPCPAPPVAGPSVFLFPPKPKDTLMISRTPEVTCVVVDVSHEDPEVQFNWYVDGVEVHNAKTKPREEQFNSTFRVVSVLTVVHQDWLNGKEYKCKVSNKGLPAPIEKTISKTKGQPREPQVYTLPPSREEMTKNQVSLTCLVKGFYPSDIAVEWESNGQPENNYKTTPPMLDSDGSFFLYSKLTVDKSRWQQGNVFSCSVMHEALHNHYTQKSLSLSPG
light: DIQLTQSPSFLSASVGDRVTITCKASQNVGTAVAWYQQKPGKAPKLLIYSASNRYTGVPSRFSGSGSGTEFTLTISSLQPEDFATYYCQQYSSYPLTFGGGTKVEIKRTVAAPSVFIFPPSDEQLKSGTASVVCLLNNFYPREAKVQWKVDNALQSGNSQESVTEQDSKDSTYSLSSTLTLSKADYEKHKVYACEVTHQGLSSPVTKSFNRGEC
notes: humanized from TPP-2971, human IgG2; also called TPP-2971HU1-hIgG2Kappa
B4: TPP-3820 (antibody, human IgG2, kappa, V domains shown)
VH: B2 VH with S30T, A46G
VL: B2 VL
notes: humanized from TPP-3187, human IgG2; also called 3187HU1-hIgG2Kappa
B5: TPP-2971 (antibody, mouse IgG1, V domains shown)
VH: QVTLKESGPGILQPSQTLSLTCSFSGFSLSTYGIGVGWIRQPSGKDLEWLAHIWWNDNKYYNTALKSRLTISKDTSNNQVFLKIASVDTADTATYYCARISLPYFDYWGQGTTLTVSS
VL: DIVMTQSQKFMSTSVGDRVSITCKASQNVGTAVAWYQQKPGQSPKLLIYSASNRYTGVPDRFTGSGSGTDFTLTISNMQSEDLADYFCQQYSSYPLTFGAGTKLELK
notes: murine hybridoma antibody, mouse IgG1; also called 792.15H12C9
B6: TPP-3323 (antibody, human IgG2, kappa, V domains shown)
VH: B5 VH with S30T, D46G
VL: DIVMTQSQKFMSTSVGDRVSITCKASQNVGTAVAWYQQKPGQSPKLLIYSASNRYTGVPDRFTGSGSGTDFTLTISNMQSEDLADYFCQQYNNYPLTFGAGTKLELKR
notes: human IgG2 chimera; also called TPP-3187X1-hIgG2; hIgG2 chimera of TPP-3187
B7: TPP-3308 (antibody, human IgG2, kappa, V domains shown)
VH: B5 VH
VL: B6 VL with N92S, N93S
notes: human IgG2 chimera; also called TPP-2971X1-hIgG2Kappa; hIgG2 chimera of TPP-2971
B8: TPP-3187 (antibody, mouse IgG1, V domains shown)
VH: B5 VH with S30T, D46G
VL: B5 VL with S92N, S93N
notes: murine hybridoma antibody, mouse IgG1; also called 792.15C4F4
B9: TPP-3705 (antibody, human IgG2, kappa, V domains shown)
VH: B1 VH
VL: B1 VL with S54L
notes: also called 090E-M007-A09-Mat1-hIgG2-hIgG2Kappa

As usually defined, the EC50 is the concentration needed to bring the measured effect to its halfway point. Usually Kd stands for the free concentration of one partner at which half of the binding sites on the other are occupied at equilibrium, for simple one-to-one binding. A low value points to tighter binding.

One experiment deals with T1, human CEACAM6, full-length, on cells. In words: FACS, transfected HeLa cells. The procedure: For FACS experiments HeLa wild type cells were cultured in RPMI-1640, 10% FCS, while CEACAM-receptor transfected HeLa cells received in addition 0.5% Gentamycin (stock 10 mg/ml, Fa. PAA) and 200 μg/ml Hygromycin B (stock 50 mg/ml, Invitrogen). Cells were washed 3 times with PBS w/o Ca²⁺/Mg²⁺ and were detached from the culture plate non-enzymatically with EDTA dissociation buffer (Gibco). Cells were washed in cold FACS buffer (PBS w/o Ca²⁺/Mg²⁺ and heat-inactivated 3% FCS) and were counted using a countess machine (Invitrogen). 10⁵ cells per well were plated and incubated with the respective primary antibody (5 μg/ml) for 1 h at 4° C. on a plate shaker. […] After 2 times washing the cells were resuspended in 100 μl FACS buffer and were analysed on a FACS Canto II machine (Beckton Dickinson) or a FACS Array (Beckton Dickinson).
For EC₅₀ analysis, the primary antibodies were used at increasing concentrations in a range from 0.1 nM to 100 nM. Half maximal binding values (EC₅₀) were determined by plotting the median fluorescence intensity signal against the concentration (logarithmic scale). Curve fitting of data was performed using the Graph Pad prism analysis software.
In general terms: In flow cytometry, cells or beads pass a laser one at a time.
In turn, B1 showed a concentration for a half-maximal effect (EC50) of 19 nM and an FACS median fluorescence of 1000 to 10000 medianfluorescence.

For the molecule B2, the 50% effective concentration (EC50) is 1 nM.

As for B3, the concentration for a half-maximal effect (EC50) amounted to 0.6 nM.

The molecule B4 showed an EC50 of 1 nM.

In turn, B5 gave an EC50 of 0.5 nM and an FACS median fluorescence of 10 to 100 medianfluorescence.

Take B6: a half-maximal effect (EC50) was put at 0.6 nM and the FACS median fluorescence lay in the range of 10 to 100 medianfluorescence.

B7: the EC50 was determined as 0.45 nM and the FACS median fluorescence lay in the range of 10 to 100 medianfluorescence.

B8: the EC50 turned out to be 0.35 nM and the FACS median fluorescence fell in the range of 100 to 1000 medianfluorescence.

For another experiment, the target named is T2, human CEACAM5, extracellular (mature …). In words: SPR, antibody captured, antigen as analyte. The procedure: (§1) Surface plasmon resonance (SPR) experiments for quantitative binding analyses were performed either using a Biacore T100, Biacore T200 or a Biacore 4000 instrument (GE Healthcare Biacore, Inc.) equipped with Series S Sensor Chips CM5 (GE Healthcare Biacore, Inc.). Binding assays were carried out at 25° C. with assay buffer HBS-EP+(10 mM HEPES pH 7.4, 150 mM NaCl, 3 mM EDTA, 0.05% Surfactant P20). Antibodies were captured with an anti-hIgG capture antibody covalently immobilized to the chip surface via amine coupling chemistry. Reagents for amine coupling (1-ethyl-3-(3-dimethylaminopropyl) carbodiimide hydrochloride (EDC), N-hydroxysuccinimide (NHS), ethanolamine-HCl pH 8.5) were used from the Amine Coupling Kit (GE Healthcare, product code BR-1000-50). Anti-hIgG, anti-mIgG capture antibodies and immobilization buffer (10 mM sodium acetate pH 5.0) were used from the Human Antibody Capture Kit (GE Healthcare, BR-1008-39) and the Mouse Antibody Capture Kit (GE Healthcare, BR-1008-38), respectively. The sensor chip surface was activated with a freshly prepared solution of 0.2 M EDC and 0.05 M NHS passed over the chip surface for 420 s at a flow rate of 10 μl/min, followed by an injection of anti-hIgG or anti-mIgG capture antibody (dissolved to 25 μg/ml in immobilization buffer) for 180 s at a flow rate of […]. Excess of activated groups were blocked with a 1 molar solution of ethanolamine injected at a flow rate of 10 μl/min for 420 s.
(§2) CEACAM antigens were used as analyte to determine KD values. Antibodies were captured for 20 s at a flow rate of 10 μl/min prior to each analyte injection.
(§3) Obtained sensorgrams were double-referenced, i.e. in-line reference cell correction followed by buffer sample subtraction.
On the technique in general: In SPR one partner is held on a chip, and binding of the other changes the refractive index at the surface.
In the case of B9, the binding result was “no binding (tested: 200 nM)”.

Turning to B1, the binding result is “no binding (tested: 200 nM)”.

In the case of B2, the binding result was “no binding (tested: 200 nM)”.

In the case of B3, the binding result is given as “no binding (tested: 200 nM)”.

Turning to B4, the binding result is listed as “no binding (tested: 200 nM)”.

Turning to B5, the binding result is given as “no binding (tested: 200 nM)”.

With B8, the binding result is recorded as “no binding (tested: 200 nM)”.

In the next experiment the target is T3, human CEACAM3, extracellular (mature …). In words: SPR, antibody captured, antigen as analyte. The procedure: as §1, §2, §3
Regarding B2, the binding result is listed as “no binding (tested: 200 nM)”.

In the case of B3, the binding result is listed as “no binding (tested: 200 nM)”.

Turning to B4, the binding result is on record as “no binding (tested: 200 nM)”.

B5: the binding result is recorded as “no binding (tested: 200 nM)”.

Consider B8, for which the binding result is reported as “no binding (tested: 200 nM)”.

For another experiment, the target named is T4, Macaca fascicularis CEACAM6, …. In words: SPR, antibody captured, antigen as analyte. The procedure:
as §1, §2, §3
In turn, B9 came in with a Kd of 32 nM.

In the case of B1, binding was characterised by a dissociation constant (Kd) of 32 nM.

Regarding B2, the Kd came out at 49 nM.

In the case of B3, the dissociation constant (Kd) was 31 nM.

Molecule B4 came in with a Kd of 54 nM.

In turn, B5 registered a Kd of 25 nM.
